Results taken from the supplement of paper PMC10126150.
± gives the standard deviation of the averaged measurements.

System: ATP
Assay: switch fluorescence ratio, 500 uM ATP over buffer (Cy3 cluster intensity, sum of 5 cycles each) (fold (ratio)); higher = stronger signal-on switching upon ATP binding; sequences stand for … in TCGTCGGCAGCGTCAGATGTGTATAAGAGACAGTTTTTTTTTTTTTTTTTTTTTTTTT…TC
Conditions: aptamer strand: ATP DNA aptamer (quencher-CACCTGGGGGAGTATTGCGGAGGAAGG + anchor), 100 nM annealed; ATP concentration: 500 uM
Summary of the method: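 Between each of five buffer/ATP cycles, the flow-cell was stripped with NaOH and re-annealed. Each cycle imaged Cy3-labelled switching-strand clusters, annealed to 100 nM quencher-labelled ATP aptamer on a modified Illumina MiSeq flow-cell, first in selection buffer and then after 15 min with 500 uM ATP at 22 °C. The fluorescence ratio is summed target-cycle over summed buffer-cycle Cy3 intensity per cluster, averaged per switch-domain sequence, with clusters outside 100-1000 RFU excluded.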
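Note: ATP exposure 15 min at 22 °C before imaging.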

TAAACAAACG
switch fluorescence ratio: 1.12 ± 0.028

TAAACACAGG
switch fluorescence ratio: 1.16 ± 0.044

TAAACACCTG
switch fluorescence ratio: 1.02 ± 0.095

TAAACCGAGC
switch fluorescence ratio: 1.73 ± 0.27

TAAACGAGGG
switch fluorescence ratio: 1.01 ± 0.014

TAAACGGGGT
switch fluorescence ratio: 1.03 ± 0.032

TAAACGGTGC
switch fluorescence ratio: 1.07 ± 0.023

TAAACTGCGA
switch fluorescence ratio: 1.07 ± 0.054

TAAAGAAAAA
switch fluorescence ratio: 1.02 ± 0.029

TAAAGAAAGC
switch fluorescence ratio: 0.9755 ± 0.0029

TAAAGAAGGG
switch fluorescence ratio: 0.988 ± 0.033

TAAAGAGGTG
switch fluorescence ratio: 1.11 ± 0.053

TAAAGCAGGC
switch fluorescence ratio: 1.11 ± 0.14

TAAAGCGAAC
switch fluorescence ratio: 1.29 ± 0.098

TAAAGCGTTG
switch fluorescence ratio: 0.9656 ± 0.0077

TAAAGGACTT
switch fluorescence ratio: 1.05 ± 0.087

TAAAGGAGAT
switch fluorescence ratio: 1.03 ± 0.032

TAAAGGAGTT
switch fluorescence ratio: 0.981 ± 0.032

TAAAGGCTAT
switch fluorescence ratio: 1 ± 0.026

TAAAGGGCGA
switch fluorescence ratio: 0.999 ± 0.027

TAAAGGGCGT
switch fluorescence ratio: 0.967 ± 0.021

TAAAGGGGAT
switch fluorescence ratio: 1.08 ± 0.16

TAAAGGGTG
switch fluorescence ratio: 1.08 ± 0.037

TAAAGGTAAT
switch fluorescence ratio: 1.01 ± 0.024

TAAAGGTTGT
switch fluorescence ratio: 0.994 ± 0.055

TAAAGTTATT
switch fluorescence ratio: 1.0106 ± 0.00041

TAAAGTTCTG
switch fluorescence ratio: 1.01 ± 0.023

TAAATAGGGT
switch fluorescence ratio: 1.05 ± 0.12

TAAATAGTAC
switch fluorescence ratio: 1.07 ± 0.032

TAAATCCGGA
switch fluorescence ratio: 0.995 ± 0.06

TAAATCTAGA
switch fluorescence ratio: 1.016 ± 0.01

TAAATGAGGA
switch fluorescence ratio: 1.03 ± 0.047

TAAATGGA
switch fluorescence ratio: 1.04 ± 0.039

TAAATGTTAA
switch fluorescence ratio: 0.9889 ± 0.0051

TAAATTACTA
switch fluorescence ratio: 1.05 ± 0.04

TAAATTAGTT
switch fluorescence ratio: 1.01 ± 0.017

TAAATTGCTT
switch fluorescence ratio: 0.991 ± 0.012

TAAATTTGTA
switch fluorescence ratio: 0.99 ± 0.028

TAAATTTTAA
switch fluorescence ratio: 0.9818 ± 0.0082

TAAATTTTTA
switch fluorescence ratio: 0.986 ± 0.052

TAAATTTTTG
switch fluorescence ratio: 1.07 ± 0.097

TAACAGAGGT
switch fluorescence ratio: 1.01 ± 0.033

TAACAGATGG
switch fluorescence ratio: 1.01 ± 0.029

TAACAGGTGG
switch fluorescence ratio: 1.02 ± 0.036

TAACAGTTAA
switch fluorescence ratio: 1.03 ± 0.027

TAACATAATT
switch fluorescence ratio: 1 ± 0.023

TAACCACCGG
switch fluorescence ratio: 1.03 ± 0.011

TAACCGATGT
switch fluorescence ratio: 1.01 ± 0.016

TAACGCTAGA
switch fluorescence ratio: 1.06 ± 0.03

TAACGCTTAA
switch fluorescence ratio: 1.09 ± 0.033

TAACGGCGTG
switch fluorescence ratio: 1.03 ± 0.021

TAACGGGTCG
switch fluorescence ratio: 0.937 ± 0.06

TAACGTAGGA
switch fluorescence ratio: 1.07 ± 0.031

TAACGTCCAG
switch fluorescence ratio: 0.978 ± 0.012

TAACTATATA
switch fluorescence ratio: 1.06 ± 0.014

TAACTGCATT
switch fluorescence ratio: 1.16 ± 0.14

TAACTGGTAC
switch fluorescence ratio: 1.13 ± 0.05

TAACTGTGAT
switch fluorescence ratio: 0.988 ± 0.025

TAACTTTCTT
switch fluorescence ratio: 0.987 ± 0.025

TAAGAAAAGT
switch fluorescence ratio: 0.9745 ± 0.0014

TAAGAAATGT
switch fluorescence ratio: 1.04 ± 0.04

TAAGAAGGTC
switch fluorescence ratio: 1.01 ± 0.054

TAAGAAGTAT
switch fluorescence ratio: 0.999 ± 0.034

TAAGAGAAGT
switch fluorescence ratio: 1.018 ± 0.0073

TAAGAGATAG
switch fluorescence ratio: 0.976 ± 0.012

TAAGAGCCAT
switch fluorescence ratio: 1.04 ± 0.013

TAAGAGGAGG
switch fluorescence ratio: 0.98337 ± 0.00017

TAAGAGGAGT
switch fluorescence ratio: 0.985 ± 0.013

TAAGAGGATC
switch fluorescence ratio: 1.0083 ± 6.4e-05

TAAGAGGTGT
switch fluorescence ratio: 1.04 ± 0.062

TAAGAGTAAT
switch fluorescence ratio: 0.985 ± 0.042

TAAGATATTA
switch fluorescence ratio: 0.998 ± 0.02

TAAGATGGAG
switch fluorescence ratio: 1 ± 0.021

TAAGATGGGG
switch fluorescence ratio: 0.9623 ± 0.0054

TAAGATGTTT
switch fluorescence ratio: 0.957 ± 0.034

TAAGCGCAGA
switch fluorescence ratio: 1.01 ± 0.03

TAAGCGCCAT
switch fluorescence ratio: 1.029 ± 0.0049

TAAGCGGCGA
switch fluorescence ratio: 0.973 ± 0.013

TAAGCTGGTA
switch fluorescence ratio: 0.995 ± 0.036

TAAGGAAAGG
switch fluorescence ratio: 0.982 ± 0.027

TAAGGAATCG
switch fluorescence ratio: 1 ± 0.043

TAAGGAATGT
switch fluorescence ratio: 1.04 ± 0.0038

TAAGGCATTG
switch fluorescence ratio: 0.996 ± 0.016

TAAGGCGCCG
switch fluorescence ratio: 0.962 ± 0.031

TAAGGCGGTA
switch fluorescence ratio: 0.963 ± 0.035

TAAGGCGGTC
switch fluorescence ratio: 0.991 ± 0.098

TAAGGCTGAA
switch fluorescence ratio: 1.02 ± 0.039

TAAGGCTTTG
switch fluorescence ratio: 0.9987 ± 0.0068

TAAGGGCCCG
switch fluorescence ratio: 0.991 ± 0.069

TAAGGGCGGT
switch fluorescence ratio: 0.957 ± 0.032

TAAGGGGAGC
switch fluorescence ratio: 1.01 ± 0.03

TAAGGGGAGG
switch fluorescence ratio: 1 ± 0.017

TAAGGGGGTA
switch fluorescence ratio: 0.992 ± 0.039

TAAGGGGTAG
switch fluorescence ratio: 0.994 ± 0.052

TAAGGGGTGT
switch fluorescence ratio: 1.03 ± 0.027

TAAGGGTCTT
switch fluorescence ratio: 0.996 ± 0.047

TAAGGGTGCC
switch fluorescence ratio: 1.01 ± 0.03

TAAGGGTTCT
switch fluorescence ratio: 0.9916 ± 0.0089

TAAGGTAAAA
switch fluorescence ratio: 1.001 ± 0.0041

TAAGGTAACG
switch fluorescence ratio: 1.05 ± 0.12

TAAGGTAAGG
switch fluorescence ratio: 1.01 ± 0.031

TAAGGTATTA
switch fluorescence ratio: 0.972 ± 0.019

TAAGGTGAGG
switch fluorescence ratio: 1.04 ± 0.023

TAAGGTGATG
switch fluorescence ratio: 1.01 ± 0.046

TAAGGTGGGA
switch fluorescence ratio: 0.996 ± 0.03

TAAGGTGGTT
switch fluorescence ratio: 0.976 ± 0.034

TAAGGTTACT
switch fluorescence ratio: 0.977 ± 0.035

TAAGGTTGGC
switch fluorescence ratio: 1.02 ± 0.04

TAAGTAGCAG
switch fluorescence ratio: 0.997 ± 0.025

TAAGTATTTT
switch fluorescence ratio: 1.01 ± 0.027

TAAGTCGAAA
switch fluorescence ratio: 1 ± 0.019

TAAGTCGTTG
switch fluorescence ratio: 1.03 ± 0.12

TAAGTGAAAA
switch fluorescence ratio: 0.995 ± 0.0094

TAAGTGCAAG
switch fluorescence ratio: 1.01 ± 0.033

TAAGTGGAAC
switch fluorescence ratio: 1.002 ± 0.0063

TAAGTGGGTT
switch fluorescence ratio: 0.992 ± 0.034

TAAGTGTAGC
switch fluorescence ratio: 1.035 ± 0.0035

TAAGTGTATG
switch fluorescence ratio: 1.007 ± 0.0034

TAAGTGTTGG
switch fluorescence ratio: 1 ± 0.018

TAAGTTAATA
switch fluorescence ratio: 1.02 ± 0.016

TAAGTTAGCC
switch fluorescence ratio: 1.049 ± 0.005

TAAGTTAGGT
switch fluorescence ratio: 1.03 ± 0.1

TAAGTTGTAA
switch fluorescence ratio: 0.999 ± 0.019

TAAGTTTTCA
switch fluorescence ratio: 1.02 ± 0.023

TAATAAATCT
switch fluorescence ratio: 0.9967 ± 0.0051

TAATAATCCA
switch fluorescence ratio: 0.994 ± 0.017

TAATACCCCG
switch fluorescence ratio: 1.06 ± 0.054

TAATACGTTT
switch fluorescence ratio: 0.986 ± 0.032

TAATACTATT
switch fluorescence ratio: 1.05 ± 0.016

TAATAGAATT
switch fluorescence ratio: 1 ± 0.014

TAATATAACC
switch fluorescence ratio: 1.04 ± 0.014

TAATATAGGT
switch fluorescence ratio: 1.018 ± 0.0097

TAATATAGTG
switch fluorescence ratio: 1.02 ± 0.045

TAATATCGGG
switch fluorescence ratio: 0.98 ± 0.027

TAATATCTTT
switch fluorescence ratio: 0.995 ± 0.054

TAATATGGGG
switch fluorescence ratio: 1.01 ± 0.039

TAATATGGTG
switch fluorescence ratio: 0.998 ± 0.014

TAATCAACGA
switch fluorescence ratio: 1 ± 0.019

TAATCAATAT
switch fluorescence ratio: 1.013 ± 0.0017

TAATCATCGA
switch fluorescence ratio: 0.99 ± 0.017

TAATCATGGT
switch fluorescence ratio: 0.969 ± 0.024

TAATCCCTTT
switch fluorescence ratio: 1.01 ± 0.04

TAATCCGGTC
switch fluorescence ratio: 1.04 ± 0.094

TAATCGTC
switch fluorescence ratio: 0.968 ± 0.023

TAATCGTGCT
switch fluorescence ratio: 0.973 ± 0.019

TAATCTAGGG
switch fluorescence ratio: 0.985 ± 0.046

TAATCTGAGT
switch fluorescence ratio: 1.01 ± 0.025

TAATGAATGT
switch fluorescence ratio: 1.02 ± 0.04

TAATGAGGGG
switch fluorescence ratio: 0.992 ± 0.033

TAATGAGTGG
switch fluorescence ratio: 1.0154 ± 0.001

TAATGATTTT
switch fluorescence ratio: 0.967 ± 0.031

TAATGGAAAT
switch fluorescence ratio: 0.979 ± 0.022

TAATGGCTCG
switch fluorescence ratio: 1 ± 0.008

TAATGGGCGA
switch fluorescence ratio: 0.976 ± 0.064

TAATGGGCTT
switch fluorescence ratio: 0.997 ± 0.012

TAATGGGGCG
switch fluorescence ratio: 0.997 ± 0.025

TAATGGGTGG
switch fluorescence ratio: 1.02 ± 0.083

TAATGGTCGT
switch fluorescence ratio: 0.989 ± 0.029

TAATGGTCTT
switch fluorescence ratio: 1.02 ± 0.14

TAATGTAAAA
switch fluorescence ratio: 0.992 ± 0.01

TAATGTGGGA
switch fluorescence ratio: 0.96651 ± 0.00012

TAATGTGTAC
switch fluorescence ratio: 1.024 ± 0.0044

TAATGTGTGT
switch fluorescence ratio: 1.016 ± 0.0091

TAATGTGTTA
switch fluorescence ratio: 1.04 ± 0.13

TAATGTTTTT
switch fluorescence ratio: 0.985 ± 0.039

TAATTAATCT
switch fluorescence ratio: 0.992 ± 0.049

TAATTAATTT
switch fluorescence ratio: 1.02 ± 0.025

TAATTACAGT
switch fluorescence ratio: 0.9904 ± 0.0021

TAATTATGGG
switch fluorescence ratio: 1.04 ± 0.056

TAATTATTAA
switch fluorescence ratio: 1.01 ± 0.019

TAATTCGGCA
switch fluorescence ratio: 0.995 ± 0.0044

TAATTGATTA
switch fluorescence ratio: 1.0033 ± 0.00096

TAATTGCTTT
switch fluorescence ratio: 0.966 ± 0.029

TAATTGGACT
switch fluorescence ratio: 1.01 ± 0.013

TAATTGGGTG
switch fluorescence ratio: 1.09 ± 0.031

TAATTTAAAG
switch fluorescence ratio: 1 ± 0.041

TAATTTAAGT
switch fluorescence ratio: 1.01 ± 0.028

TAATTTCCTT
switch fluorescence ratio: 1.06 ± 0.16

TAATTTCTAA
switch fluorescence ratio: 0.9946 ± 0.0029

TAATTTGAGT
switch fluorescence ratio: 1 ± 0.014

TAATTTGATG
switch fluorescence ratio: 0.979 ± 0.027

TAATTTGGTT
switch fluorescence ratio: 1.01 ± 0.026

TAATTTGTTC
switch fluorescence ratio: 1 ± 0.026

TAATTTTAAA
switch fluorescence ratio: 0.988 ± 0.018

TAATTTTAAT
switch fluorescence ratio: 1.025 ± 0.0087

TAATTTTATA
switch fluorescence ratio: 0.9789 ± 0.0046

TAATTTTTGC
switch fluorescence ratio: 1.02 ± 0.043

TAATTTTTTG
switch fluorescence ratio: 0.997 ± 0.021

TACAAATCTA
switch fluorescence ratio: 1 ± 0.036

TACAAATGTT
switch fluorescence ratio: 1 ± 0.018

TACAACATTT
switch fluorescence ratio: 1.06 ± 0.015

TACAACTAGA
switch fluorescence ratio: 1 ± 0.024

TACAAGCTGT
switch fluorescence ratio: 1.01 ± 0.014

TACAAGGAGA
switch fluorescence ratio: 1 ± 0.012

TACAAGGGTA
switch fluorescence ratio: 1.01 ± 0.06

TACAAGTTTT
switch fluorescence ratio: 0.986 ± 0.0093

TACAATTTGA
switch fluorescence ratio: 0.954 ± 0.018

TACAATTTTA
switch fluorescence ratio: 1.006 ± 0.0041

TACACGCCTT
switch fluorescence ratio: 1.05 ± 0.015

TACAGAAGCG
switch fluorescence ratio: 1.033 ± 0.0073
